Patent US8575097B2, “Exendin variant and conjugate thereof” (Pegbio Co., Ltd., priority 2009, dated 2013)

Test system: guinea pigs
Assay: Systematically allergic reaction in guinea pigs (Example 23)
Assay type: in vivo, guinea pig
Conditions: albumin 240 mg/kg via toe vein
Excerpt: 44 male healthy guinea pigs were provided, and the body weight of each guinea pig was about 300 g.

B1: chicken ovalbumin (protein, UniProt P01012 2-386, looked up)
Ovalbumin: GSIGAASMEFCFDVFKELKVHHANENIFYCPIAIMSALAMVYLGAKDSTRTQINKVVRFDKLPGFGDSIEAQCGTSVNVHSSLRDILNQITKPNDVYSFSLASRLYAEERYPILPEYLQCVKELYRGGLEPINFQTAADQARELINSWVESQTNGIIRNVLQPSSVDSQTAMVLVNAIVFKGLWEKAFKDEDTQAMPFRVTEQESKPVQMMYQIGLFRVASMASEKMKILELPFASGTMSMLVLLPDEVSGLEQLESIINFEKLTEWTSSNVMEERKIKVYLPRMKMEEKYNLTSVLMAMGITDVFSSSANLSGISSAESLKISQAVHAAHAEINEAGREVVGSAEAGVDAASVSEEFRADHPFLFCIKHIATNAVLFFGRCVSP
notes: chicken ovalbumin, albumin group in the guinea pig allergy test
Which “time to death after stimulation” value does the source give for B1 here?
Its value is under 2 min.
